# From paper doi:10.1101/2020.03.25.005199
# Biological target: Orai1-GFP (UniProt Q96D31)
# Assay: FRET or BRET
# Chain of UniProt Q96D31 (Q96D31 whole entry): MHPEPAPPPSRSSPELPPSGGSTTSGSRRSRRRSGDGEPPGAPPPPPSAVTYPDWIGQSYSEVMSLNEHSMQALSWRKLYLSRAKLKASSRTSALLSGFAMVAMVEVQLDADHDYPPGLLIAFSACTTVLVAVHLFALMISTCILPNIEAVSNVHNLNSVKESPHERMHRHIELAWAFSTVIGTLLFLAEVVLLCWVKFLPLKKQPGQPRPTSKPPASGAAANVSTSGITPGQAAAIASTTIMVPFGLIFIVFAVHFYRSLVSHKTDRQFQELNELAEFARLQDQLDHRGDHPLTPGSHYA
substance,measurement,value
STIM1A-mCherry (from UniProt Q13586) (natural protein),E-FRET,0.26
